Source: a protein production outcome set (Wang et al. 2014)

Test: label from the status in PepcDB records
For “GSSGSSGMASTFTSDTLPADHKAAIRQMKHALRAQLGDVQQIFNQLSDDIATRVAEINALKAQGDAVWPVLSYADIKAGHVTAEQREQIKRRGCAVIKGHFPREQALGWDQSMLDYLDRNRFDEVYKGPGDNFFGTLSASRPEIYPIYWSQAQMQARQSEEMANAQSFLNRLWTFESDGKQWFNPDVSVIYPDRIRRRPPGTTSKGLGAHTDSGALERWLLPAYQRVFANVFNGNLAQYDPWHAAHRTEVEEYTVDNTTKCSVFRTFQGWTALSDMLPGQGLLHVVPIPEAMAYVLLRPLLDDVPEDELCGVAPGRVLPVSEQWHPLLIEALTSIPKLEAGDSVWWHCDVIHSVAPVENQQGWGNVMYIPAAPMCEKNLAYAHKVKAALEKGASPGDFPREDYETNWEGRFTLADLNIHGKRALGMDV”, the protein production was “not failed”.
For “GSSGSSGMQLEIQVALNFIISYLYNKLPRRRVNIFGEELERLLKKKYEGHWYPEKPYKGSGFRCIHIGEKVDPVIEQASKESGLDIDDVRGNLPQDLSVWIDPFEVSYQIGEKGPVKVLYVDDNSGPSSG”, the protein production was “not failed”.
For “GTIGPVADAEPHAAALGEAFQLTNFLRDVGEDLDRGRVYLPADELAAFGVDTELLAHSRRSGTTDQRIVRALAHLISVTRSVYRDAEPGIAMLDRRVQPGIRTAFVLYSRILDEIERGGYRVLDRRATVSRRNRWATALPQFARLAV”, the protein production was “failed”.
With “GTVSWNLREMLAHAEETRKLMPICMDVRAIMATIQRKYKGIKIQEGIVDYGVRFFFYTSKEPVASIITKLNSLNEPLVTMPIGYVTHGFNLEEAARCMRSLKAPAVVSVSSPDAVTTYNGYLTSSSKTSEEHFVETVSLAGSYRDWSYSGQRTELGVEFLKRGDKIVYHTLESPVEFHLDGEVLSLDKLKSLLS” the protein production was “not failed”.
In the case of “GYDHKKMGITAKGAWVGVQRHFRERDINVQQDSISVIGIGDMAGDVFGNGLLMSDKLQLVAAFNHLHIFIDPNPEPASSFAERERLFNLPRSSWTDYDTSIMSAGGGIFPRSLKSIAITEQMKARFDIKADKLTPTELLHALLKAPVDLLWNGGIGTYVKSSEESHADVGDKANDALRVDGNELRCKVVGEGGNLGMTQLGRVEFGLNGGATNTDFIDNAGGVDCSDHEVNIKILLNEVVQAGDMTEKQRNQLLESMTDEVGHLVLGNNYKQTQALSLAARRAYERIAEYKRLMSDLEARGKLD”, the protein production is reported as “not failed”.
For “GYIQMPLFRLHVQVFTPEREIPLGTVCLLHGYLEHSGIYQPIIREILDQGFSVVTYDLPGHGLSDGSPANIQNFDHYQQVLMAVYQYVKNADQLPKPWLGIGQSTGGAIWMHHLLEYAEKRQDPIVDRVLLLSPLIRPAKTAWWHNSVGLGIIRRIRRQVPRHFRRNNHNPEFLRFIRLKDPLQPRMMGMDWILAMSKWMFEMEQRPACRIPVWLAQGALDQTVDWRYNIEFIRRKFRLQTLLMLEEGSHQLINERADIRAALTGLIPAFLHAR”, the protein production was “failed”.
With “HGGHRQYAKEILSTSSAAMASQRSFLGLEPTIKKIPAFRAVYLRHKGYNKSIALSWQKLMAWGFEHQISSQARQIGIHHDNPSITPLAECRYIAALEVEEGFRAQGLLGVMEFPPTLCAVFEVQGRYGDVLGLIDYVYHEWLPQSGYEAKTIPAFALYQKNHFLDPLGNFQLDFCLPVGVV” the protein production was “failed”.
For “HHIAYTEWGIFEPELPTVICVHGYTRNSRDFDELANYLSSKGRHVFCPDIAGRGDSSWFKNPRYYNFTQYVKDMTVLMARTNAHQIDWIGTSMGGIIGMILAAMPNSPINKLVLNDIGPQIPIHGLRRIAKYAGKAPDFKSLEEAKQHFKASYADFGITNEKQWDIFTKNSVEQRGPNLYVTKMDPAIKKSKSILQIISEFFRHPHKALEGIFYDINLWSIWKQIKCPVIVIHGVNSDILTSEIITQMKKTHALTEVYEVENAGHAPALLDLTVHQRIEDWLATH”, the protein production was “failed”.
In the case of “HHSVEAPQVKKRMGKFPFVKASKKESEEISKQLHNALDIELPSESTVWLRDKDVWLFPDALEPMIGELRFSRMGIKIAEAHKNGYRWQHQVATALATGAESNAIELTIEEAREWYMGRDVRPQIIPEGLKTGKGEVLVKYQGAIIGLGKWVSNRIKNGLPRELVRDKNLF”, the protein production is reported as “not failed”.
For “HQEIKGRKTLATPAVRRLAMENNIKLSEVVGSGKDGRILKEDILNYLEKQTGAILPP”, the protein production was “not failed”.
In the case of “HRPLNPAMVAFSNDPLLNDLALNSSYSLLFAVNNMKSEKSAEQFYGKMDNQKMLDLVRASSTKIDFDPTLLPTMNSNPATYQGKRKNLVILLQESLGAQFVGSLGGLPLTPNLDELMQEGWQFTQMYATGTRSVRGIEAVTTGFPPSPSRAVVKLSKSQTGFFTIADLLKEQGYHTQFIYGGEANFDNMKTFFFGNGFDQIVEEKNYTNPGFVGSWGVSDEDLYNKADEEFERLSKGDKPFFSLVFTSSNHSPYEYPEGKIEQYDSEHMTRNNAVKYSDYALGTFFDKAKKSSYWDDTIFIVIADHDARVFGANLVPVKHFHIPALIIGKDIQPRKDDRIANNIDMPPTLLSLIGVDAKTPMIGRDLTKPLAREDERAMMQYDKNFGYLTRDNLVVLSPGEKVSTMEYDFESQTMKPLEVDESVIDRAKANALFASKAYQNNWYSSKRTN”, the protein production is reported as “not failed”.
With “HRSDPQIAICLDCLRNNGQSGDNVVKGLMKKFIRCSTRVTVGTIKKFLSLKLKLPSSYELDVLCNGEIMGKDHTMEFIYMTRWRLRGENFRCLNCSASQVCSQDGPLYQSYPMVLQYR” the protein production was “failed”.
In the case of “HRWITRPKFTHFDLHTLNWDLCLTQANHKSNLALEMLKMLLDSLPETVEKIQTALGQNDQATMLSTIHKLHGASCYCGVPTTQRLCQEIESALKRQTPVEDLEPEILELLDELTKVESAVKQVLSQLSAE”, the protein production is reported as “not failed”.
With “HSFVVLVIGESARKHNYALYGYQKPTTPRLSKRLADNELTLFNATSCATYTTASLECILDSSFKNNAYENLPTYLTKAGIKVFWYSANDGEKNVKVTSYLKNYELIQKCPNCEAIAPYDESLLYNLPDLLKEHSNENVLLILHLAGSHGPNYDNKVPLNFRVFKPYCSSADLSSCSKESLINAYDNTIFYNDYLLDKIISMLENAKQPALMIYLSDHGESLGEEAFYLHGIPKSIAPKEQYEIPFIVYAN” the protein production was “failed”.
In the case of “HSIPYKNINLPCYFISPANDGEKRDTVMIVSGFDGTLEEEFLMRGLAAVERGYNVIHFAGPGQMDVFRKYPDTYFEPDFEQVVKRIINYFEFRQEINMAKLTLMGISFGGYFATRAASHEPRIKVLIANSPILDLHAYMCSFVKMDPCEMPDSEDFSINDLPSIPNEVMPPQLKAQTEHLIRRFGQPTFKATFHYLREFTVGDSLNHIKIPCLALLGSGEGGEPGKQFAEFCKITNSAQYEFSDFEGAGSHCQVGNVSYSNAVVYDWLDSL”, the protein production is reported as “not failed”.
In the case of “HSIVAITDNRGVITHVNEKFCDISQYEYYELVGTTHKIINSGFHPRSFFKQMWKTIAQGNIWKGEICNRTKQGKLYWVDTTIVPLKDND”, the protein production is reported as “failed”.
With “IAAGGSHVEAAPQEEWKKHFIHTGELGSAEFASVMSHTTSAMKSVFEQVNAPYSGMDPKALEDAINAVDLDNKNAPLKSVIDDVAELVAKNAIFTQHPDCIAHLHTPPLMPAVAAEAMIAALNQSMDSWDQASSATYVEQKVVNWLCDKYDLSEKADGIFTSGGTQSNQMGLMLARDWIADKLSGHSIQKLGLPDYADKLRIVCSKKSHFTVQKSASWMGLGEKAVMTVDANADGTMDITKLDEVIAQAKAEGLIPFAIVGTAGTTDHGAIDDLDFIADMAVKHDMWMHVDGAYGGALILSSHKSRLKGVERAHSISVDFHKLFYQTISCGALLVNDKSNFKFLLHHADYLNREHDELPNLVDKSIATTKRFDALKVFMTMQNVGPKALGDMYDHLLAQTLEVADMIRTNDQFELLAEPSLSTVLFRATHETADLDELNKALRLEALTRGIAVLGETIVDGKTALKFTILNPCLTTSDFESLLSKINMLAVELV” the protein production was “not failed”.
In the case of “IAQIPVSVYWMNKNHVYMGCSNNMVKLLNLNSRYDIVGKTYEDLYHEKSTSYYKKADKIVMDKGISLSLEEPFYCPDGTTKEIYLSNKVPLRDLEGKIIGMLGVSVDIT”, the protein production is reported as “failed”.
With “IDTNLLYVFFTSGSTGIPKGVSIAHKSVIDYTFWVCETFKFDENEILANQAPFYFDNSILDIFSSVKSGATLHLLPNHLFAFPNKILECLEKEKVSTIFWVPSVLIYFANTEALNNFSLNALKKMLFCGEIMPNKQLNIWRKHLPNALFANLYGPTEITDVCSFYIINRTFKDEEL” the protein production was “failed”.
For “IEAENHKVTDKIKNAQPFLVDVVPAKSVIPELNDDAQKTLLHAGPPIQWSEMTGPMKGACIGAALFERWADNEEDALKIFEAGEVRFIPCHHVKAVGPMGGITSGNMPVFVVENRLEGNEAYCILNEGIGKVLRFGAYSQEVVDRLDWIKDVLGPTIAKALKLSEEGLNLNVLIARSITMGDEFHQRNIAASLNFLKELSPLIIKTDIPEDQKYEVIKFLADTDQFFLNVMMATGKAIVDGARKDTNGTIVTTMTRNGVNFGVRIAETGDQWHTAPVNTPKGLYFTGFSEEDGNPDVGDSAITETVGVGAMAMVAAPGVTRFVGAGGFEDALATSNEMAKICEGNNPTFSIPTWDFQGTCLGIDIRKVVELGITPIINTGIAHKNAGVGQIGAGTVRAPLGCFEKALEAYAEKLGITVE”, the protein production was “failed”.
With “IEFESRTTDEGVAVVRPAGRLNMVAAPRLRELLRDVVDGGTTCVVVDLSATDFIDSSGLGALIAGLKAARQAGGDLRIAQPTEQVETVLALTNLNRVLRTHDSVDAAFD” the protein production was “failed”.
With “IEKCWTEDEVKRFVKGLRQYGKNFFRIRKELLPNKETGELITFYYYWKKT” the protein production was “not failed”.
For “IGIVNDMPLAVEALRRALAFEPQHQIVWVASNGAEAVTQCAADTPDVVLMDLLMPVMDGVEATRRIMAESPCAIVIVTVDIEQNVHRVFEAMGYGALDAVNTPALGIGNPQTAAAPLLRKIQNVGWLIGQRDNRGKVQVVPPKAGGARQRLVAIGASAGGPASLAVLLKQLPASFNAAVVLVQHVDEVFAAGMAEWLASESKLPVRLARDGEPPIPGQILLAGTNNHIRLLRNGSLVYTAEPRSFVYRPSIDVFFESVANYWRGDAVGVLLTGMGRDGAQGLKQMRERGFLTIAQDQASCAVYGMPKAAAAIDAAVQILSLEKIA”, the protein production was “failed”.
In the case of “IGIWFTGTDGRYHFVNKTFCNLVGIEEEDMLNTPSSNLAELLGSEIAHNCLDSDRAALGQDLAHVSYETIPRLNAKPYLLEITKVKLKNTR”, the protein production is reported as “failed”.
With “IHHLPPVKAPLQTKKKIMKHCFLCGKKTGLATSFECRCGNNFCASHRYAEAHGCNYDYKSAGRRYLEEANPV” the protein production was “not failed”.
With “IHIQQIENLMEYEFSHLVQDSEEEGFNFLIRLINGYKNKVNVFNKTGECLYGIFQGDMLIGVGGLNEDPYTKDNKIGRLRRFYISRDYRRLGLGNLLLNQLLCHAEKYFEVIVLHTDTKQGDVFYTANGFVK” the protein production was “failed”.
In the case of “IIAWLGPQLRELTPVDTNKDPKTRLQEFLQSRGCDLPRYEVVDIQGEPHCRTFFVDCEVALLSDKTHGHGGSRRIAEQVAAAAALVALGVENGHD”, the protein production is reported as “failed”.
With “ILTENTPYFEQLSVPQRSVGRIIGRGGETIRSICKASGAKITCDKESEGTLLLSRLIKISGTQKEVAAAKHLILEKVSEDEELRKRIAHSA” the protein production was “not failed”.
In the case of “INIEIAYAFPERYYLKSFQVDEGITVQTAITQSGILSQFPEIDLSTNKIGIFSRPIKLTDVLKEGDRIEIYRPLLADPKEIRRK”, the protein production is reported as “not failed”.
With “INSAIELMEHNSSLSISEIAQFTNTSTAYFSRIFKKTIGETPVCFYTKIKLKKVQKLLITTNLTLAEISEQTGFTDPFYLSKVFTTHLGCSPRTYRKN” the protein production was “failed”.
In the case of “IPLGIYEKALPAGECWLERLKLAKALGFDFVEMSLDETDARLARLDWSPEQRLALVKAVAETGVRVPSMCLSAHRRFPLGSEDDAVRHQGLEIMRKAIQLAQDVGIRVIQLAGYDVYYQQANDETRRRFRDGLKQSVEMASRAQVTLAMEIMDYPLMNSISKALGYAHYLNNPWFQLYPDIGNLSAWDNDVQMELKAGSGHIVAVHVKDTKPGVFKNVPFGEGVVDFERCFETLKQTGYCGPYLIEMWSETSADPLAEVAKARDWVKARMARAGLM”, the protein production is reported as “not failed”.
